Assay results reported in PMC10786891, “Massively parallel profiling of RNA-targeting CRISPR-Cas13d”.

T1: EsCas13d, nuclease-dead (Eubacterium siraeum, UniProt B0MS50, R295A;H300A;R849A;H854A)
T1 sequence: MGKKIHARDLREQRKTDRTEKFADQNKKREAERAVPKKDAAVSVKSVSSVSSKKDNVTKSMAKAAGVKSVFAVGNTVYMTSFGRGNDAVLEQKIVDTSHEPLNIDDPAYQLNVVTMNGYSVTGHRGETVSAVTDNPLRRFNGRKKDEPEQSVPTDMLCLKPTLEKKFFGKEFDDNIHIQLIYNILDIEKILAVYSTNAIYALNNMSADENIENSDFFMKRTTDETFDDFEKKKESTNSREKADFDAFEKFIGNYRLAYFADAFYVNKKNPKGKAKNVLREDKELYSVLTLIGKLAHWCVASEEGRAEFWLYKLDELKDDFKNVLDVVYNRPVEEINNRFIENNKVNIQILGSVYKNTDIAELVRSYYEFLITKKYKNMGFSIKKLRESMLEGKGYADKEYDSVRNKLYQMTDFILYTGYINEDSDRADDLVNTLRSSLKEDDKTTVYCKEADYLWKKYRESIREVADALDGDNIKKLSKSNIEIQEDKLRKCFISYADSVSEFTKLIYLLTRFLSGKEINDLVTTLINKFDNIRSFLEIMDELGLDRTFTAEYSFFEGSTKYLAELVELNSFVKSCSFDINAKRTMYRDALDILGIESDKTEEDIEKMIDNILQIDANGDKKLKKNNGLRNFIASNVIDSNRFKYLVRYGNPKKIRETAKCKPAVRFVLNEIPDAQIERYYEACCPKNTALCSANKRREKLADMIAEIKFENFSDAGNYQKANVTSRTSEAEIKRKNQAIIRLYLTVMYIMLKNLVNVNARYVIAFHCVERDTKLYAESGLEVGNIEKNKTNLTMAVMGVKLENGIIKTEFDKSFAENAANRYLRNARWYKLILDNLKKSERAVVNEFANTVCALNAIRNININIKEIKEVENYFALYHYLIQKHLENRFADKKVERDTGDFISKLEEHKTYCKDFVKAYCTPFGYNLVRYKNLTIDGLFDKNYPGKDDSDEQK

B1: target 1 G5U,G12U (mixed)
RNA 1: CACCCGUGCAAAAAUGCAGGGGUCUAAAACUGAGCGGAUAACCUCUCUAUGG
RNA 2: GGGAAUGGAUCCACAUCUACGAAUUCGUACCAUAGAGAGUUUAUCCUCUCACCGAGAUCGGAAGAGCACACGU
B2: target 1 insG 3' of 3,insA 3' of 3 (mixed)
RNA 1: CACCCGUGCAAAAAUGCAGGGGUCUAAAACUGAGCGGAUAACCUCUCUAUGG
RNA 2: GGGAAUGGAUCCACAUCUACGAAUUCGUACCAUAGAGAGGUUAUCCGCUGACACCGAGAUCGGAAGAGCACACGU
B3: target 1 C7U,A9U (mixed)
RNA 1: CACCCGUGCAAAAAUGCAGGGGUCUAAAACUGAGCGGAUAACCUCUCUAUGG
RNA 2: GGGAAUGGAUCCACAUCUACGAAUUCGUACCAUAGAGAGGUUUUUCGCUCACCGAGAUCGGAAGAGCACACGU
B4: target 1 insU 3' of 20,insC 3' of 10 (mixed)
RNA 1: CACCCGUGCAAAAAUGCAGGGGUCUAAAACUGAGCGGAUAACCUCUCUAUGG
RNA 2: GGGAAUGGAUCCACAUCUACGAAUUCGUACCAUUAGAGAGGUUCAUCCGCUCACCGAGAUCGGAAGAGCACACGU
B5: target 1 insU 3' of 14,insA 3' of 3 (mixed)
RNA 1: CACCCGUGCAAAAAUGCAGGGGUCUAAAACUGAGCGGAUAACCUCUCUAUGG
RNA 2: GGGAAUGGAUCCACAUCUACGAAUUCGUACCAUAGAGAUGGUUAUCCGCUACACCGAGAUCGGAAGAGCACACGU
B6: target 1 insG 3' of 18,insA 3' of 8 (mixed)
RNA 1: CACCCGUGCAAAAAUGCAGGGGUCUAAAACUGAGCGGAUAACCUCUCUAUGG
RNA 2: GGGAAUGGAUCCACAUCUACGAAUUCGUACCAUAGGAGAGGUUAUACCGCUCACCGAGAUCGGAAGAGCACACGU
B7: target 1 insG 3' of 16,insA 3' of 12 (mixed)
RNA 1: CACCCGUGCAAAAAUGCAGGGGUCUAAAACUGAGCGGAUAACCUCUCUAUGG
RNA 2: GGGAAUGGAUCCACAUCUACGAAUUCGUACCAUAGAGGAGGAUUAUCCGCUCACCGAGAUCGGAAGAGCACACGU
B8: target 1 insU 3' of 22,insC 3' of 9 (mixed)
RNA 1: CACCCGUGCAAAAAUGCAGGGGUCUAAAACUGAGCGGAUAACCUCUCUAUGG
RNA 2: GGGAAUGGAUCCACAUCUACGAAUUCGUACUCAUAGAGAGGUUACUCCGCUCACCGAGAUCGGAAGAGCACACGU
B9: target 1 A1U,U19A (mixed)
RNA 1: CACCCGUGCAAAAAUGCAGGGGUCUAAAACUGAGCGGAUAACCUCUCUAUGG
RNA 2: GGGAAUGGAUCCACAUCUACGAAUUCGUACCAAAGAGAGGUUAUCCGCUCUCCGAGAUCGGAAGAGCACACGU
B10: target 1 G5C,U10C (mixed)
RNA 1: CACCCGUGCAAAAAUGCAGGGGUCUAAAACUGAGCGGAUAACCUCUCUAUGG
RNA 2: GGGAAUGGAUCCACAUCUACGAAUUCGUACCAUAGAGAGGUCAUCCCCUCACCGAGAUCGGAAGAGCACACGU
B11: target 1 insA 3' of 10,insU 3' of 6 (mixed)
RNA 1: CACCCGUGCAAAAAUGCAGGGGUCUAAAACUGAGCGGAUAACCUCUCUAUGG
RNA 2: GGGAAUGGAUCCACAUCUACGAAUUCGUACCAUAGAGAGGUUAAUCCUGCUCACCGAGAUCGGAAGAGCACACGU
B12: target 1 U8C,G15U (mixed)
RNA 1: CACCCGUGCAAAAAUGCAGGGGUCUAAAACUGAGCGGAUAACCUCUCUAUGG
RNA 2: GGGAAUGGAUCCACAUCUACGAAUUCGUACCAUAGAUAGGUUACCCGCUCACCGAGAUCGGAAGAGCACACGU
B13: target 1 insC 3' of 18,insC 3' of 13 (mixed)
RNA 1: CACCCGUGCAAAAAUGCAGGGGUCUAAAACUGAGCGGAUAACCUCUCUAUGG
RNA 2: GGGAAUGGAUCCACAUCUACGAAUUCGUACCAUACGAGAGCGUUAUCCGCUCACCGAGAUCGGAAGAGCACACGU
B14: target 1 A1C,A16C (mixed)
RNA 1: CACCCGUGCAAAAAUGCAGGGGUCUAAAACUGAGCGGAUAACCUCUCUAUGG
RNA 2: GGGAAUGGAUCCACAUCUACGAAUUCGUACCAUAGCGAGGUUAUCCGCUCCCCGAGAUCGGAAGAGCACACGU
B15: target 1 complement block 9-11 (mixed)
RNA 1: CACCCGUGCAAAAAUGCAGGGGUCUAAAACUGAGCGGAUAACCUCUCUAUGG
RNA 2: GGGAAUGGAUCCACAUCUACGAAUUCGUACCAUAGAGAGGAAUUCCGCUCACCGAGAUCGGAAGAGCACACGU
B16: target 1 U3A,A20C (mixed)
RNA 1: CACCCGUGCAAAAAUGCAGGGGUCUAAAACUGAGCGGAUAACCUCUCUAUGG
RNA 2: GGGAAUGGAUCCACAUCUACGAAUUCGUACCCUAGAGAGGUUAUCCGCACACCGAGAUCGGAAGAGCACACGU
B17: target 1 insU 3' of 14,insG 3' of 4 (mixed)
RNA 1: CACCCGUGCAAAAAUGCAGGGGUCUAAAACUGAGCGGAUAACCUCUCUAUGG
RNA 2: GGGAAUGGAUCCACAUCUACGAAUUCGUACCAUAGAGAUGGUUAUCCGCGUCACCGAGAUCGGAAGAGCACACGU
B18: target 1 A1G,U19A (mixed)
RNA 1: CACCCGUGCAAAAAUGCAGGGGUCUAAAACUGAGCGGAUAACCUCUCUAUGG
RNA 2: GGGAAUGGAUCCACAUCUACGAAUUCGUACCAAAGAGAGGUUAUCCGCUCGCCGAGAUCGGAAGAGCACACGU
B19: target 1 insC 3' of 14,insC 3' of 8 (mixed)
RNA 1: CACCCGUGCAAAAAUGCAGGGGUCUAAAACUGAGCGGAUAACCUCUCUAUGG
RNA 2: GGGAAUGGAUCCACAUCUACGAAUUCGUACCAUAGAGACGGUUAUCCCGCUCACCGAGAUCGGAAGAGCACACGU
B20: target 1 U3G,A20C (mixed)
RNA 1: CACCCGUGCAAAAAUGCAGGGGUCUAAAACUGAGCGGAUAACCUCUCUAUGG
RNA 2: GGGAAUGGAUCCACAUCUACGAAUUCGUACCCUAGAGAGGUUAUCCGCGCACCGAGAUCGGAAGAGCACACGU
B21: target 1 insC 3' of 22,insC 3' of 11 (mixed)
RNA 1: CACCCGUGCAAAAAUGCAGGGGUCUAAAACUGAGCGGAUAACCUCUCUAUGG
RNA 2: GGGAAUGGAUCCACAUCUACGAAUUCGUACCCAUAGAGAGGUCUAUCCGCUCACCGAGAUCGGAAGAGCACACGU
B22: target 1 insA 3' of 11 (mixed)
RNA 1: CACCCGUGCAAAAAUGCAGGGGUCUAAAACUGAGCGGAUAACCUCUCUAUGG
RNA 2: GGGAAUGGAUCCACAUCUACGAAUUCGUACCAUAGAGAGGUAUAUCCGCUCACCGAGAUCGGAAGAGCACACGU
B23: target 1 insC 3' of 20,insC 3' of 17 (mixed)
RNA 1: CACCCGUGCAAAAAUGCAGGGGUCUAAAACUGAGCGGAUAACCUCUCUAUGG
RNA 2: GGGAAUGGAUCCACAUCUACGAAUUCGUACCACUAGCAGAGGUUAUCCGCUCACCGAGAUCGGAAGAGCACACGU
B24: target 1 insG 3' of 20,insC 3' of 20 (mixed)
RNA 1: CACCCGUGCAAAAAUGCAGGGGUCUAAAACUGAGCGGAUAACCUCUCUAUGG
RNA 2: GGGAAUGGAUCCACAUCUACGAAUUCGUACCAGCUAGAGAGGUUAUCCGCUCACCGAGAUCGGAAGAGCACACGU

These binders were tested against T1, EsCas13d, nuclease-dead (assay: crRNA (strand 1, pre-loaded); Mg2+; 40 mM Tris-HCl pH 7.5, 150 mM NaCl, 6 mM MgCl2, 1 mM DTT, 0.1% Tween-20, 0.2 mg/ml BSA; 25 C; 10 min per concentration, then washed). Settings: tags: His6-TwinStrep-SUMO cleaved; N-terminal SNAP kept (SNAP-Surface 488); label: 3' end held by stalled T7 RNA polymerase.

Question: How did the Kd turn out when B1 was run?
Answer: 41 ± 7 nM

Question: With B2 as the binder, how does the Kd read?
Answer: 6.1 ± 0.4 nM

Question: With B3 as the binder, how does the Kd read?
Answer: 6.3 ± 0.4 nM

Question: With B4 as the binder, how does the Kd read?
Answer: 30 ± 4 nM

Question: B5 was tested. Which Kd did it give?
Answer: 56 ± 14 nM

Question: B6 was tested. Which Kd did it give?
Answer: 56 ± 5 nM

Question: For B7, which Kd is on record?
Answer: 45 ± 9 nM

Question: With B8 as the binder, how does the Kd read?
Answer: 36 ± 7 nM

Question: For B9, which Kd is on record?
Answer: 29 ± 4 nM

Question: How did the Kd turn out when B10 was run?
Answer: 23.2 ± 1.2 nM

Question: With B11 as the binder, how does the Kd read?
Answer: 13.9 ± 0.5 nM

Question: With B12 as the binder, how does the Kd read?
Answer: 34.6 ± 2.5 nM

Question: Which Kd does the source give for B13 here?
Answer: 49 ± 6 nM

Question: With B14 as the binder, how does the Kd read?
Answer: 42 ± 9 nM

Question: B15 was tested. Which Kd did it give?
Answer: 22.9 ± 1.5 nM

Question: B16 was tested. Which Kd did it give?
Answer: 26.3 ± 1.6 nM

Question: How did the Kd turn out when B17 was run?
Answer: 31.8 ± 2.8 nM

Question: For B18, which Kd is on record?
Answer: 29 ± 4 nM

Question: Which Kd does the source give for B19 here?
Answer: 48 ± 7 nM

Question: For B20, which Kd is on record?
Answer: 28.1 ± 2.2 nM

Question: For B21, which Kd is on record?
Answer: 50 ± 6 nM

Question: B22 was tested. Which Kd did it give?
Answer: 16.4 ± 0.8 nM

Question: How did the Kd turn out when B23 was run?
Answer: 4.9 ± 0.6 nM

Question: How did the Kd turn out when B24 was run?
Answer: 50 ± 7 nM
